For one test, the target named is T1, human TNFR2 (human, UniProt P20333 23-257, limits assumed).
T1 sequence (looked up): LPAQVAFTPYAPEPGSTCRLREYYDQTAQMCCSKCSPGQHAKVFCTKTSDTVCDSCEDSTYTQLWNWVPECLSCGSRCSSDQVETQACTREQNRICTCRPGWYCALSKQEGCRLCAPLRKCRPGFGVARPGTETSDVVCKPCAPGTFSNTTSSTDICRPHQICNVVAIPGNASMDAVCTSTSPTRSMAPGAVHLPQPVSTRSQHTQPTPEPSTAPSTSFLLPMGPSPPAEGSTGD
Kind of test: selection of TNFR2-binding stefin A variants; method not described.

The target of test [1] is T2, human Mega CD40L recombinant protein (Enzo Lifesciences) (human, UniProt P29965 116-261).
T2 sequence (looked up): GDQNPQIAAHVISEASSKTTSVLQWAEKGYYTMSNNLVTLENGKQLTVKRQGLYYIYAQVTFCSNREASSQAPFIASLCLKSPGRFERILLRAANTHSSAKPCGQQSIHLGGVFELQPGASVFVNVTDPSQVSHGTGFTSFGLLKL
Kind of test: cell-based or functional assay.

Test [2] addresses T3, recombinant human CD40L (R&D Systems, 6420-CL-025/CF) (human, UniProt P29965 108-261, limits assumed).
T3 construct: Bought protein coated on the ELISA plate
T3 sequence (looked up): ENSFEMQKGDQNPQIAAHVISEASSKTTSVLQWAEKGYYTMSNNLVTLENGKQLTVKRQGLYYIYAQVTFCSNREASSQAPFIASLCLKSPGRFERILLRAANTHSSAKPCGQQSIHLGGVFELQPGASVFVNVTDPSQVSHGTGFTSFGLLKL
The test can be described thus: binding ELISA (bELISA): plate coated with recombinant human CD40L, 1/3 serial dilutions of concentrated culture fluid, TMB read-out; first-named of the two gene-introduced cell lines (promoter not stated). The protocol:
(§1) Each cell line was inoculated into a T175 flask at a cell density of 4.0×10³ cells/cm² using a culture medium. After culture at 37° C. and 5% CO₂ for 18 to 24 hours, the culture medium was thoroughly replaced with a fresh culture medium every 2 days, followed by culture. After culture for 3 days, the cells were harvested, and 7.0×10⁶ cells were inoculated into a T175 flask, followed by culture at 37° C. and 5% CO₂ for 18 to 24 hours. The culture medium was thoroughly removed, and the remaining medium was completely removed through washing with 10 mL of MEM alpha. 30 mL of an MEM alpha medium was added to a T175 flask, followed by culture for 48 hours. After 48 hours, all of the cell culture fluid was harvested and then centrifuged to remove residual cells and impurities. The cell culture fluid was transferred to a Vivaspin 20 and centrifuged, the culture fluid was concentrated, and the stefin A protein variant was quantified through sandwich ELISA (LSBio, LS-F4620). […] The unbound stefin A protein variant was removed through washing, after which the extent of binding between the stefin A protein variant and CD40L was detected based on a difference in absorbance resulting from reaction with a TMB substrate.

The target in test [3] is T3, recombinant human CD40L (R&D Systems, …). Kind of test: binding ELISA (bELISA): plate coated with recombinant human CD40L, 1/3 serial dilutions of concentrated culture fluid, TMB read-out; second-named of the two gene-introduced cell lines (promoter not stated). The protocol: as §1

Several values for one entry are separate records, joined by “and”; a condition that tells them apart may be missing. Identical values can stand only once.

B1: TNFR2-binding stefin A variant CLONE 009 (designed binder)
chain: MIPGGLSEAKPATPEIQEIVDKVKPQLEEKTGETYGKLEAVQYKTQVVRLFHIWRWWGTNYYIKVRAGDNKYMHLKVFKSLIHIYTDSIQEDLVLTGYQVDKNKDDELTGFAAAEQKLISEEDLAAHHHHHH
notes: also called clone 9
B1: the binding result in the test with human TNFR2 is on record as “binds”.

B2: TNFR2-binding stefin A variant CLONE 026 (designed binder)
chain: MIPRGLSEAKPATPEIQEIVDKVKPQLEEKTGETYGKLEAVQYKTQVLALEIPSAIIYSTNYYIKVRAGDNKYMHLKVFNGPYFWGDQEHWADRVLTGYQVDKNKDDELTGFAAAEQKLISEEDLAAHHHHHH
notes: also called clone 26
B2: in the test with human TNFR2, the binding result was “binds”.

B3: TNFR2-binding stefin A variant CLONE 100 (designed binder)
chain: MIPRGLSEAKPATPEIQEIVDKVKPQLEEKTGETYGKLEAVQYKTQVLAQSWDKHYQLRESTNYYIKVRAGDNKYMHLKVFNGPEVPHHAHGVADRVLTGYQVDKNKDDELTGFAAAEQKLISEEDLAAHHHHHH
Regarding B3, the binding result in the test with human TNFR2 was “binds”.

B4: anti-CD40L stefin A protein variant XT75 (SEQ ID NO: 105), secreted by gene-introduced MSC (eMSC) (designed binder)
chain: IPGGLSEAKPATPEIQEIVDKVKPQLEEKTGETYGKLEAVQYKTQVVHYYVHYNDQGTNYYIKVRAGDNKYMHLKVFKSLWGENLFAKWEDLVLTGYQVDKNKDDELTGFAEAAAKEAAAKEAAAKEAAAKEAAAKEAAAKMIPGGLSEAKPATPEIQEIVDKVKPQLEEKTGETYGKLEAVQYKTQVVHYYVHYNDQGTNYYIKVRAGDNKYMHLKVFKSLWGENLFAKWEDLVLTGYQVDKNKDDELTGFAEAAAKEAAAKEAAAKEAAAKEAAAKEAAAKMIPGGLSEAKPATPEIQEIVDKVKPQLEEKTGETYGKLEAVQYKTQVVHYYVHYNDQGTNYYIKVRAGDNKYMHLKVFKSLWGENLFAKWEDLVLTGYQVDKNKDDELTGFAEAAAKEAAAKEAAAKEAAAKEAAAKEAAAKMIPRGLSEAKPATPEIQEIVDKVKPQLEEKTGETYGKLEAVQYKTQVLANFFQRRWPGSTNYYIKVRAGDNKYMHLKVFNGPWKFRNTDRGADRVLTGYQVDKNKDDELTGF
notes: By their DNA these vectors appear to encode a further C-terminal Myc/His tag and a T2A remnant; also called AFX01-230 XT75(C); eMSC (XT75, w/EF1A)
Broadly, the EC50 is the concentration giving half of the maximal effect. For the molecule B4, the “IC50 for hMega CD40L, HEK-Blue CD40L reporter cell assay (absorbance of HEK-Blue solution)” value in test [1] is 0.303 nM and 0.4 nM. The EC50 came to 0.0039 nM in test [2] and 0.0053 nM in test [3].

B5: TNFR2-binding stefin A variant CLONE 012 (designed binder)
chain: MIPGGLSEAKPATPEIQEIVDKVKPQLEEKTGETYGKLEAVQYKTQVVYWGVQGALDGTNYYIKVRAGDNKYMHLKVFKSLNWNHEFDLVEDLVLTGYQVDKNKDDELTGFAAAEQKLISEEDLAAHHHHHH
notes: also called clone 12
As to B5, the binding result in the test with human TNFR2 was “binds”.

B6: TNFR2-binding stefin A variant CLONE 001 (designed binder)
chain: MIPGGLSEAKPATPEIQEIVDKVKPQLEEKTGETYGKLEAVQYKTQVVGQDQWGNYAGTNYYIKVRAGDNKYMHLKVFKSLPDIPHNHWHEDLVLTGYQVDKNKDDELTGFAAAEQKLISEEDLAAHHHHHH
notes: also called clone 1
For B6, the binding result in the test with human TNFR2 is on record as “binds”.

B7: TNFR2-binding stefin A variant CLONE 007 (designed binder)
chain: MIPGGLSEAKPATPEIQEIVDKVKPQLEEKTGETYGKLEAVQYKTQVVGLDIWGNNAGTNYYIKVRAGDNKYMHLKVFKSLADTARTEEAEDLVLTGYQVDKNKDDELTGFAAAEQKLISEEDLAAHHHHHH
notes: also called clone 7
For B7, the binding result with human TNFR2 is “binds”.

B8: TNFR2-binding stefin A variant CLONE 044 (designed binder)
chain: MIPGGLSEAKPATPEIQEIVDKVKPQLEEKTGETYGKLEAVQYKTQVVLFPEAVYWVGTNYYIKVRAGDNKYMHLKVFKSLIWNDNAAQHEDLVLTGYQVDKNKDDELTGFAAAEQKLISEEDLAAHHHHHH
notes: also called clone 44
Consider B8, for which the binding result in the test with human TNFR2 is on record as “binds”.
